{"source": "paper PMC11544220", "about": "(Scientific Reports, 2024)", "binders": {"B1": {"name": "Mycobacterium tuberculosis dUTPase, wild type (MtDUT^WT) (enzyme)", "chain": "MSTTLAIVRLDPGLPLPSRAHDGDAGVDLYSAEDVELAPGRRALVRTGVAVAVPFGMVGLVHPRSGLATRVGLSIVNSPGTIDAGYRGEIKVALINLDPAAPIVVHRGDRIAQLLVQRVELVELVEVSSFDEAGLASTSRGDGGHGSSGGHASL"}}, "key": {"[1]": {"molecular_target": "the molecule itself", "assay": "native MS"}, "[2]": {"molecular_target": "Stl-Avi, biotinylated full-length Stl for the BLI sensor (Staphylococcus aureus, UniProt Q9F0J8 1-267, biotin on the Avi-tag)", "assay": "BLI"}, "[3]": {"molecular_target": "Stl^NT-Avi, biotinylated Stl 1-159 for the BLI sensor (Staphylococcus aureus, UniProt Q9F0J8 1-159, biotin on the Avi-tag)", "assay": "BLI"}}}
{"binder": "B1", "values": [{"measurement": "stoichiometry N", "setting": "[1]", "result": 3, "unit": "subunits in the oligomer"}, {"measurement": "Kd", "setting": "[2]", "result": "< 0.001", "unit": "nM"}, {"measurement": "koff", "setting": "[2]", "result": "< 1e-07", "unit": "s⁻¹"}, {"measurement": "kon", "setting": "[2]", "result": "270000 ± 0.01", "unit": "M⁻¹ s⁻¹"}, {"measurement": "Kd", "setting": "[3]", "result": "0.19 ± 0.001", "unit": "nM"}, {"measurement": "koff", "setting": "[3]", "result": "0.000103 ± 0.04", "unit": "s⁻¹"}, {"measurement": "kon", "setting": "[3]", "result": "542000 ± 0.01", "unit": "M⁻¹ s⁻¹"}]}
